Laboratory results taken from article PMC2852676 (Current Biology, 2010).

Target: T1, Smc3 hinge domain fusion protein, wild type (Smc3H) (yeast, UniProt P47037 495-705)
T1 sequence: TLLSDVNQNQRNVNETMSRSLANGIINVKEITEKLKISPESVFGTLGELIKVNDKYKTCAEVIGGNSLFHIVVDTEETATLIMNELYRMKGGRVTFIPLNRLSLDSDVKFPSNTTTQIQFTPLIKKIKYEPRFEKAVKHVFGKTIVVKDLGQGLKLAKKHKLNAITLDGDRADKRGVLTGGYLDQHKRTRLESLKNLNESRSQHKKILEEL
Experiment: SEC

binding result: binds
B1: Smc1 hinge domain fusion protein, wild type (Smc1H) (domain or fragment)
chain: SANQRETMKERKLRENIAMLKRFFPGVKGLVHDLCHPKKEKYGLAVSTILGKNFDSVIVENLTVAQECIAFLKKQRAGTASFIPLDTIETELPTLSLPDSQDYILSINAIDYEPEYEKAMQYVCGDSIICNTLNIAKDLKWKKGIRGKLVTIEGALIHKAGLMTGGISGDANNRWDKEE
